# B1: active MMP-2: Purified human MMP-2 (mixture of the proenzyme (50%) and the active form (50%)) purchased from Biomol (protein, listed as Homo sapiens)
# chain: MEALMARGALTGPLRALCLLGCLLSHAAAAPSPIIKFPGDVAPKTDKELAVQYLNTFYGCPKESCNLFVLKDTLKKMQKFFGLPQTGDLDQNTIETMRKPRCGNPDVANYNFFPRKPKWDKNQITYRIIGYTPDLDPETVDDAFARAFQVWSDVTPLRFSRIHDGEADIMINFGRWEHGDGYPFDGKDGLLAHAFAPGTGVGGDSHFDDDELWTLGEGQVVRVKYGNADGEYCKFPFLFNGKEYNSCTDTGRSDGFLWCSTTYNFEKDGKYGFCPHEALFTMGGNAEGQPCKFPFRFQGTSYDSCTTEGRTDGYRWCGTTEDYDRDKKYGFCPETAMSTVGGNSEGAPCVFPFTFLGNKYESCTSAGRSDGKMWCATTANYDDDRKWGFCPDQGYSLFLVAAHEFGHAMGLEHSQDPGALMAPIYTYTKNFRLSQDDIKGIQELYGASPDIDLGTGPTPTLGPVTPEICKQDIVFDGIAQIRGEIFFFKDRFIWRTVTPRDKPMGPLLVATFWPELPEKIDAVYEAPQEEKAVFFAGNEYWIYSASTLERGYPKPLTSLGLPPDVQRVDAAFNWSKNKKTYIFAGDKFWRYNEVKKKMDPGFPKLIADAWNAIPDNLDAVVDLQGGGHSYFFKGAYYLKLENQSLKSVKFGSIKSDWLGC
# Tests used:
# human basophils = assay: Basophil activation by MMP-2 (IL-4, TSLP, CD203c); type: cell-based
# [1] = test system: Cord blood-derived CD4+/CD25- cells; assay: Priming of naive cord blood CD4+ T cells with autologous CD4- cells loaded with different sources of MMP-2; type: cell-based, human
# Description: Cord blood-derived CD4^+/CD25^− cells from 11 donors were stimulated with irradiated autologous CD4^− cells loaded either with active MMP-2, heat-inactivated (HI) MMP-2 or with MMP-2 pre-incubated with a specific inhibitor (+I). After 15 days, CD4^+ T cells were stimulated with the MMP-2 peptide pool (2 μM) for 6 h before intracellular staining of cytokines. (A) Density plots representing cytokine production by CD4^+ T cells are shown for the representative donor CB35 primed to MMP-2 either in its active form or after heat-inactivation. Numbers indicate percentages of cytokine-producing cells upon MMP-2 peptide stimulation. […] MMP-2 enzymatic activity was controlled (FIG. 13C-D). For each cytokine, 3 paired t-tests were used to compare active MMP-2 to heat inactivated MMP-2, to MMP-2+I, and to MMP-2 peptides. P values≦0.0167 (*) were considered statistically significant using a Bonferroni correction for 3 comparisons.
# T Cell culture, stimulation and priming. Peripheral blood mononuclear cells (PBMCs) were purified from healthy donor-(HD) or cord blood donor-(CB) derived buffy coats (New York Blood Center) by Ficoll-Paque Plus (GE Healthcare) centrifugation. CD4^+/CD25^− cells were enriched (>90%) by magnetic cell sorting (Miltenyi Biotec) and primed/stimulated for 12-15 days either with irradiated (35Gy) autologous CD4^− cells or with autologous mature DCs in IMDM (GIBCO) supplemented with 1 mM HEPES (Life Technologies), 2 mM L-glutamine (Sigma), streptomycin (100 UI/mL)/penicillin (100 μg/mL) (Sigma) and 5% heat inactivated pooled human serum (PHS; Valley Biomedical) in the presence of rhIL-2 (10 UI/mL) and IL7 (5 ng/mL) (R&D Systems). Antigen presenting cells (CD4^− cells or DCs) were loaded either with peptides (2 μM) or with the MMP-2 protein (10 μg/mL) for 2 and 5 h, respectively. DCs were matured using the TLR3 agonist poly(I:C) at 5 μg/mL/10^6 DCs (Amersham). To generate T cell clones, we originally relied on our published methodology (Godefroy et al., 2006; Godefroy et al., 2007; the entire contents of each of which is incorporated herein by reference), involving enrichment of IFNγ-secreting cells upon short-term culture and peptide stimulation to generate MMP-2 responsive clones. Briefly, CD4^+ T cells were stimulated by CD4^− cells irradiated and pulsed with peptides for 12 days in the presence of rhIL-2 and rhIL-7. CD4^+ T cells were then restimulated with peptides for 3 hours before capturing IFNγ-secreting specific cells using a bispecific antibody coating T cells and capturing produced IFNγ. Positive cells were purified magnetically before being cloned. Although MMP-2-specific cells could be isolated, it was realized that IFNγ secretion was marginal compared to their secretion of IL-4 and TNFα. IFNγ-secreting cells in response to MMP-2 peptide pool were enriched by cytokine-guided magnetic cell sorting (Miltenyi Biotec) as described above and cloned the following day by limiting dilution in the presence of irradiated allogeneic PBMCs, 1 μg/mL phytohemagglutinin-L (Sigma) and 150 UI/mL rhIL-2. Tumor infiltrating lymphocytes (TILs) were provided by Pr. F. Jotereau and B. Dréno. They were obtained from tumor-invaded lymph nodes of melanoma patients (stage Mb) and expanded ex vivo. These patients received autologous TILs and IL-2 infusions in a clinical trial (Labarriere et al., 2002). This protocol was approved by the Institutional Ethics Committee and registered with regulatory state authority in France (Nantes).
# Intracellular staining T-bet and GATA-3 expression was measured on resting T cells. Cells were fixed (4% paraformaldehyde for 10 min at RT), permeabilized with 0.1% saponin, and stained for intracellular transcription factors. Cytokine production by T cells was also assessed by intracellular staining T cells were stimulated with 2 μM overlapping peptides. After 1 h, 10 μg/mL brefeldin A was added to the cells. […]
molecule,measurement,setting,value
B1,production of IL-4 by basophils,human basophils; MMP-2 0.5 and 5 μg/mL,neither induced
same,production of TSLP by basophils,"human basophils; MMP-2 0.5 and 5 μg/mL, 16 h",neither induced
same,expression of basophil activation marker CD203c,"human basophils; PBMCs, 6 h",did not increase
same,"percentage of MMP-2-specific CD4+ T cells secreting IL-4, mean","[1]; 11 cord blood donors, 15 days after priming, after background subtraction",2.38%
same,IFNγ and IL-2 production compared to inactive MMP-2 or peptides,"[1]; primed cells, 15 days",less
